Measured values from patent US20020065240A1.

Biological target: VEGF mitogenic receptors
Experiment: cell-based or functional assay

B1: recombinant human VEGF145, P15692 207-395 (ligand)
chain: APMAEGGGQNHHEVVKFMDVYQRSYCHPIETLVDIFQEYPDEIEYIFKPSCVPLMRCGGCCNDEGLECVPTEESNITMQIMRIKPHQGQHIGEMSFLQHNKCECRPKKDRARQEKKSVRGKGKGQKRKRKKSRYKSWSVCDKPRR
half-maximal activity, HUVEC mitogenesis ([3H]thymidine incorporation): 17 to 19 ng/mL
